Results as given in the supplement of paper PMC7877785.
± gives the uncertainty stated by the source.

Assay: self-splicing fitness, log relative to wild type (ln ratio); higher = more splicing; Tetrahymena group I intron in knt gene, E. coli kanamycin selection, DiMSum; sequences stand for … in CUCUCU…GGAGGGAAAAGUUAUCAGGCAUGCACCUGGUAGCUAGUCUUUAAACCAAUAGAUUGCAUCGGUUUAAAAGGCAAGACCGUCAAAUUGCGGGAAAGGGGUCAACAGCCGUUCAGUACCAAGUCUCAGGGGAAACUUUGAGAUGGCCUUGCAAAGGGUAUGGUAAUAAGCUGACGGACAUGGUCCUAACCACGCAGCCAAGUCCUAAGUCAACAGAUCUUCUGUUGAUAUGGAUGCAGUUCACAGACUAAAUGUCGGUCGGGGAAGAUGUAUUCUUCUCAUAAGAUAUAGUCGGACCUCUCCUUAAUGGGAGCUAGCGGAUGAAGUGAUGCAACACUGGAGCCGCUGGGAACUAAUUUGUAUGCGAAAGUAUAUUGAUUAGUUUUGGAGUACUCGUGGUCG
In short: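 DiMSum derived fitness as the error-weighted combination of fold changes across replicates, kanamycin versus no kanamycin, normalised to wild type. E. coli BL21(DE3) held the library, which randomised all eight P1ex-region intron nucleotides within the knt kanamycin-resistance gene on pET-22b(+). Six replicate transformations grew overnight at 37°C or 30°C on LB agar with or without 25 μg/mL kanamycin, also containing 100 μg/mL carbenicillin, 50 μM IPTG and 0.2% rhamnose, and pooled colonies were amplicon-sequenced on an Illumina HiSeq 2500.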

| Sequence | self-splicing fitness (ln) (30 °C) | self-splicing fitness (ln) (37 °C) |
| --- | --- | --- |
| UAGCAGCAAUAUUACGCCUA | -0.551 ± 0.13 | 0.446 ± 0.15 |
| UAGCAGCAAUAUUACGCGAU | -2.94 ± 0.2 | -3.07 ± 0.35 |
| UAGCAGCAAUAUUACGCGCA | -0.588 ± 0.11 | -0.487 ± 0.095 |
| UAGCAGCAAUAUUACGCGGU | -4.14 ± 0.22 | -2.49 ± 0.17 |
| UAGCAGCAAUAUUACGCGUG | -1.5 ± 0.076 | -0.257 ± 0.1 |
| UAGCAGCAAUAUUACGCGUU | -2.72 ± 0.1 | -1.24 ± 0.11 |
| UAGCAGCAAUAUUACGGAUG | -1.19 ± 0.073 | -0.912 ± 0.079 |
| UAGCAGCAAUAUUACGGCUA | -2.89 ± 0.39 | -1.33 ± 0.28 |
| UAGCAGCAAUAUUACGGGCU | -3.39 ± 0.15 | -1.08 ± 0.12 |
| UAGCAGCAAUAUUACGUCAU | -3.68 ± 0.17 | -1.52 ± 0.13 |
| UAGCAGCAAUAUUACGUGAA | -1.71 ± 0.16 | -0.671 ± 0.18 |
| UAGCAGCAAUAUUACGUGAU | -3.42 ± 0.13 | -1.09 ± 0.11 |
| UAGCAGCAAUAUUACGUGUA | -1.17 ± 0.062 | -0.62 ± 0.077 |
| UAGCAGCAAUAUUACGUGUG | -1.63 ± 0.064 | -0.7 ± 0.08 |
| UAGCAGCAAUAUUACGUGUU | -3.4 ± 0.1 | -2.86 ± 0.15 |
| UAGCAGCAAUAUUACGUUCG | -0.326 ± 0.069 | 0.165 ± 0.091 |
| UAGGAGCAAUAUUACGACUA | -0.46 ± 0.13 | -1.53 ± 0.15 |
| UAGGAGCAAUAUUACGAGUC | -3.68 ± 0.33 | -2.78 ± 0.3 |
| UAGGAGCAAUAUUACGAUCU | -3.09 ± 0.4 | – |
| UAGGAGCAAUAUUACGAUGC | -1.78 ± 0.23 | -1.01 ± 0.17 |
| UAGGAGCAAUAUUACGAUGU | – | -1.79 ± 0.4 |
| UAGGAGCAAUAUUACGCCCG | -1.53 ± 0.19 | -0.352 ± 0.17 |
| UAGGAGCAAUAUUACGGAAG | -2.94 ± 0.18 | -1.51 ± 0.26 |
| UAGGAGCAAUAUUACGGAUA | -2.09 ± 0.29 | -1.46 ± 0.23 |
| UAGGAGCAAUAUUACGGAUC | -3.44 ± 0.41 | -0.998 ± 0.39 |
| UAGGAGCAAUAUUACGGCAC | -2.4 ± 0.15 | -2.53 ± 0.26 |

| Sequence | self-splicing fitness (ln) (30 °C) | self-splicing fitness (ln) (37 °C) |
| --- | --- | --- |
| UAGGAGCAAUAUUACGGCCA | -2.27 ± 0.21 | -1.7 ± 0.27 |
| UAGGAGCAAUAUUACGGCUA | -0.122 ± 0.11 | 0.147 ± 0.11 |
| UAGGAGCAAUAUUACGGUAA | -3.41 ± 0.34 | -2.26 ± 0.31 |
| UAGGAGCAAUAUUACGUAAU | -3.15 ± 0.34 | – |
| UAGGAGCAAUAUUACGUACU | -2.72 ± 0.31 | -1.73 ± 0.32 |
| UAGGAGCAAUAUUACGUAUA | -2.34 ± 0.21 | -0.936 ± 0.17 |
| UAGGAGCAAUAUUACGUCAC | -3.99 ± 0.16 | -3.35 ± 0.21 |
| UAGGAGCAAUAUUACGUCAG | -4.59 ± 0.42 | -1.7 ± 0.26 |
| UAGGAGCAAUAUUACGUCCU | -1.63 ± 0.18 | -2.25 ± 0.26 |
| UAGGAGCAAUAUUACGUCUA | -0.313 ± 0.11 | 0.198 ± 0.13 |
| UAGGAGCAAUAUUACGUCUU | -3.16 ± 0.34 | -0.955 ± 0.23 |
| UAGGAGCAAUAUUACGUUUC | -2.55 ± 0.29 | -2.68 ± 0.44 |
| UAGGAGCAAUAUUACGUUUU | -1.88 ± 0.23 | -1.89 ± 0.27 |
| UAGUAGCAAUAUUACGAACC | – | -2.97 ± 0.33 |
| UAGUAGCAAUAUUACGAAGC | – | -1.73 ± 0.45 |
| UAGUAGCAAUAUUACGACUC | -0.329 ± 0.16 | 0.405 ± 0.19 |
| UAGUAGCAAUAUUACGACUU | 0.654 ± 0.13 | -0.285 ± 0.14 |
| UAGUAGCAAUAUUACGAGGG | -3.04 ± 0.42 | -2.03 ± 0.36 |
| UAGUAGCAAUAUUACGCAGG | -2.8 ± 0.22 | -1.74 ± 0.23 |
| UAGUAGCAAUAUUACGCCUA | -0.556 ± 0.14 | -0.575 ± 0.14 |
| UAGUAGCAAUAUUACGCGUA | -1.53 ± 0.25 | -1.94 ± 0.17 |
| UAGUAGCAAUAUUACGCUAC | -2.41 ± 0.42 | – |
| UAGUAGCAAUAUUACGCUCU | -1.71 ± 0.16 | -0.589 ± 0.17 |
| UAGUAGCAAUAUUACGGCCG | 0.0089 ± 0.17 | -0.367 ± 0.23 |
| UAGUAGCAAUAUUACGGCUG | -0.344 ± 0.061 | -0.0985 ± 0.096 |
| UAGUAGCAAUAUUACGUCCU | -2.53 ± 0.21 | -0.272 ± 0.15 |

| Sequence | self-splicing fitness (ln) (30 °C) | self-splicing fitness (ln) (37 °C) |
| --- | --- | --- |
| UAGUAGCAAUAUUACGUGCU | -1.79 ± 0.11 | -0.826 ± 0.12 |
| UAGUAGCAAUAUUACGUGGA | -2.56 ± 0.31 | -1.29 ± 0.2 |
| UAGUAGCAAUAUUACGUUAU | -3.5 ± 0.43 | -3.13 ± 0.4 |
| UAGUAGCAAUAUUACGUUCG | -0.331 ± 0.091 | -0.159 ± 0.11 |
| UAGUAGCAAUAUUACGUUGG | -3.52 ± 0.22 | -2.69 ± 0.16 |
| UAUAAGCAAUAUUACGAAAG | -1.17 ± 0.13 | -2.44 ± 0.21 |
| UAUAAGCAAUAUUACGAAAU | -3.45 ± 0.22 | -3.24 ± 0.33 |
| UAUAAGCAAUAUUACGAACG | -0.609 ± 0.12 | 0.622 ± 0.15 |
| UAUAAGCAAUAUUACGAACU | -1.94 ± 0.28 | 0.235 ± 0.24 |
| UAUAAGCAAUAUUACGAAGG | -2.23 ± 0.21 | -1.19 ± 0.23 |
| UAUAAGCAAUAUUACGAAUC | – | -1.77 ± 0.36 |
| UAUAAGCAAUAUUACGACCA | -0.816 ± 0.092 | 0.038 ± 0.12 |
| UAUAAGCAAUAUUACGAUCU | -1.22 ± 0.11 | 0.0539 ± 0.12 |
| UAUAAGCAAUAUUACGAUGC | -3.29 ± 0.36 | -2.63 ± 0.27 |
| UAUAAGCAAUAUUACGAUUU | -1.43 ± 0.091 | -0.65 ± 0.1 |
| UAUAAGCAAUAUUACGCACC | -1.82 ± 0.3 | -1.42 ± 0.3 |
| UAUAAGCAAUAUUACGCAGG | -2.31 ± 0.13 | -0.616 ± 0.11 |
| UAUAAGCAAUAUUACGCAUU | -2.15 ± 0.21 | -0.414 ± 0.14 |
| UAUAAGCAAUAUUACGCCAU | -1.19 ± 0.23 | -2.11 ± 0.28 |
| UAUAAGCAAUAUUACGCCGA | -1.53 ± 0.14 | 0.235 ± 0.14 |
| UAUAAGCAAUAUUACGCUUG | -1.75 ± 0.15 | -0.76 ± 0.14 |
| UAUAAGCAAUAUUACGGCCU | -0.92 ± 0.16 | -0.641 ± 0.23 |
| UAUAAGCAAUAUUACGGGAG | -2.07 ± 0.11 | -1.64 ± 0.12 |
| UAUAAGCAAUAUUACGGGCA | -0.658 ± 0.11 | 0.213 ± 0.12 |
| UAUAAGCAAUAUUACGGGGU | -2.93 ± 0.24 | -2.66 ± 0.23 |
| UAUAAGCAAUAUUACGGGUG | -0.65 ± 0.074 | 0.0941 ± 0.12 |
